Where a chain is given by its changes, count along the chain named.
Assays:
[1] = target: T1, Cas3 wild type (Escherichia coli K-12 MG1655, UniProt P38036 1-888); assay: EMSA; EMSA: 20 nM fork DNA, 50 mM Tris-HCl pH 7.5, 100 mM NaCl, 0.1 mg/mL BSA, 20 mM DTT, room temperature, 1 h; details: protein: recombinant; tags: (His)6-MBP N-terminal (pCas3); a His6-only construct (pAH4) also exists; label: 5'-Cy5 on strand 1 (MW12); fork 1:2; as printed strand 1 nt 2-25 pair with strand 2 nt 27-50
T1 sequence: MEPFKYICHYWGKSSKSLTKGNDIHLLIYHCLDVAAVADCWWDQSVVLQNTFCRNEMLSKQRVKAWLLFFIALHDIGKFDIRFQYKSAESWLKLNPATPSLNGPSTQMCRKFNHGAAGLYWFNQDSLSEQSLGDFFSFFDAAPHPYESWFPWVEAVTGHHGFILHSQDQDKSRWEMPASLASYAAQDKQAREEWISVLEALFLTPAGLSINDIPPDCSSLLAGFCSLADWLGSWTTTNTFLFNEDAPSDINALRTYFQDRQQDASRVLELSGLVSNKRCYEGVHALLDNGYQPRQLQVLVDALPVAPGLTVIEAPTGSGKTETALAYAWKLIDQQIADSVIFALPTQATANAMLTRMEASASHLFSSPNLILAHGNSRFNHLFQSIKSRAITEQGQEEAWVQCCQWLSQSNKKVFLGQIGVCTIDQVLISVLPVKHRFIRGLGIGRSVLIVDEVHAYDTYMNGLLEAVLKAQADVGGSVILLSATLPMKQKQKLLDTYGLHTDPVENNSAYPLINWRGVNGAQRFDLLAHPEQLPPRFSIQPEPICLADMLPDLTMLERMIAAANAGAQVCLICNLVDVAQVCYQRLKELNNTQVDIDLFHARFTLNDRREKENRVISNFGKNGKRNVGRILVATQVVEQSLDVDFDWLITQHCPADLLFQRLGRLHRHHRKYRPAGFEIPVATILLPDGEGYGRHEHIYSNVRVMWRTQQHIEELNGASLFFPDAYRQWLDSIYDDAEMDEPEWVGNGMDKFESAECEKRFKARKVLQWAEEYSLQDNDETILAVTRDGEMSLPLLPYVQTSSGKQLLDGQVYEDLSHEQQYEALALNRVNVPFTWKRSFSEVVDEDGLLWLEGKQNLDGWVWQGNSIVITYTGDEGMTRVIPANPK

[2] = target: T2, Cas3W406A (Escherichia coli K-12 MG1655, UniProt P38036 1-888, W406A); assay: EMSA; not more stable or efficient than wild type; EMSA: 20 nM fork DNA, 50 mM Tris-HCl pH 7.5, 100 mM NaCl, 0.1 mg/mL BSA, 20 mM DTT, room temperature, 1 h; details: protein: recombinant; tags: (His)6-MBP or His6 (pIIB39 is the His6 pAH4 version); label: 5'-Cy5 on strand 1 (MW12); fork 1:2; as printed strand 1 nt 2-25 pair with strand 2 nt 27-50
T2 sequence: T1 sequence with W406A

B1: DNA fork MW12/MW14 (mixed)
DNA 1: GTCGGATCCTCTAGACAGCTCCATGATCACTGGCACTGGTAGAATTCGGC
DNA 2: CAACGTCATAGACGATTACATTGCTACATGGAGCTGTCTAGAGGATCCGA
**Q.** Does B1 bind [1]?
**A.** binds

**Q.** Does B1 bind [2]?
**A.** binds
